Test results taken from article PMC3927398.

Tests used:
[1] = molecular target: actin filaments (F-actin) from rabbit skeletal muscle, phalloidin-stabilized (rabbit) (UniProt P68135); test: co-sedimentation
[2] = molecular target: MYO19-1IQ (N-terminal FLAG-tagged human MYO19, motor domain and one IQ motif, amino acids 2-787) (human) (UniProt Q96H55); test: co-purification

MYO19-1IQ with bound calmodulin light chain (from UniProt Q96H55-1 2-787; P0DP23 1-149) (complex)
Kd [1]: 1200 nM | fraction bound at 5 μM actin without ATP [1]: 0.8

calmodulin (from UniProt P0DP23 1-149) (natural protein)
stoichiometry N (CaM/MYO19-1IQ) [2]: 1.1
